Measured values as given in patent US20230235059A1 (published 2023).
Substitutions are numbered along the chain they refer to.

How the values were obtained:
Test in all cases: SPR
[1] = molecular target: T1, Recombinant rhesus monkey PD-1-His (Sino Biological catalog #90305-K08H)
T1 chain: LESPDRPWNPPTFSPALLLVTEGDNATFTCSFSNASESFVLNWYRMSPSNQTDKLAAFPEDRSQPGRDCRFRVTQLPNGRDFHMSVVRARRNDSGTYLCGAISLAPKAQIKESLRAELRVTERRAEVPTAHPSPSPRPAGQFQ

[2] = molecular target: T2, Recombinant cynomolgus monkey PD-1-His (Sino Biological catalog #90311-C08H)
T2 chain: T1 chain with P10A, R67Q, Q75R

[3] = molecular target: Recombinant human PD-1-His (Sino Biological catalog #10377-H08H-B) (UniProt Q15116 25-167)

Kd [1]: 3.33 nM | Kd [2]: 35.2 nM | Kd [3]: 12.2 nM
B1: HPD-BB9 (antibody, V domains shown)
VH: QVQLVQSGAEVKKPGASVKVSCKASGFRLTTNGISWVRQAPGQGLEWMGWISAGGGPTNYAQKLQGRVTMTTDTSTSTAYMELRSLRSDDTAVYYCAKGLYGTKDAWGQGTLVTVSS
VL: QSVLTQPPSVSEVPGQRVTISCSGGGSNIGSNAVNWYQHFPGKAPKLLIYYNDLLPSGVSDRFSASKSGTSASLAISGLRSEDEADYYCAAWDDNLSAYVFATGTKVTVL
